The values that follow come from publication PMC4100090, “A Simple Three-Step Method for Design and Affinity Testing of New Antisense Peptides: An Example of Erythropoietin” (International Journal of Molecular Sciences, 2014).

A short description of data set [1]: circular dichroism spectroscopy. Type of data set: physicochemical. To be noted: 1 mg/mL peptide, phosphate buffer 0.1 M, pH = 7.4, 25 °C, 1 cm cuvette, averages of five scans; negative peak around 200 nm. The procedure: The circular dichroism spectra were measured with Jasco J-815 CD spectrometer equipped with thermostated cell holder in a rectangular 1 cm cuvette (Jasco Inc., Easton, MD, USA). Conditions: concentration of peptides = 1 mg/mL, phosphate buffer = 0.1 M, pH = 7.4, temperature = 25 °C. Spectra are presented as averages of five scans, and corrected for buffer spectrum.
In general terms: Circular dichroism is the unequal absorption of left and right circularly polarised light.

Data set [2] deals with T1, Erythropoietin P2 epitope peptide (Homo sapiens).
T1 chain: LKLYTGEACRTGDR
Briefly: microscale thermophoresis. (Microscale thermophoresis detects binding through changes in fluorescence in a small temperature gradient.)

Data set [3] addresses T1, Erythropoietin P2 epitope peptide. Briefly: tryptophan fluorescence titration.

Take LKLYTGEACRTGDR: the “secondary structure by CD spectroscopy” value in data set [1] is on record as “random coil structure”. Regarding DFDIWPLRTAWPLS [EPO-P2 antisense peptide], the Kd was 816 µM in data set [2] and 850 µM in data set [3].

As a reminder, the Kd is the concentration at which binding is half-saturated. The low end stands for higher affinity, the high end for lower affinity.
